The supplement of paper PMC5998384

What was measured:
HeLa Kyoto [1] = experiment: solubility change mitosis vs G1/S (difference of NP-40 vs SDS log2 ratios) (log2 ratio difference); higher = more soluble in mitosis
HeLa Kyoto [2] = experiment: solubility in G1/S (NP-40 vs SDS abundance) (log2 ratio); higher = more soluble; details: cell cycle stage: G1/S
HeLa Kyoto [3] = experiment: melting temperature (median over replicates), in situ; higher = more thermally stable
HeLa Kyoto [4] = experiment: thermal stability score vs G1/S (z-score of summed log2 fold changes over temperatures); higher = more thermally stable than in G1/S
[5] = cell cycle stage: early G1 (4.5 h after nocodazole release)
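For melting temperature (median over replicates), in situ in this document: HeLa Kyoto cells synchronized by double thymidine or nocodazole block, proteins quantified by TMT10plex mass spectrometry, three independent biological replicates.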
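For solubility change mitosis vs G1/S (difference of NP-40 vs SDS log2 ratios) in this document: synchronized HeLa Kyoto cells (double thymidine block for G1/S, nocodazole release for mitosis), protein amounts in NP-40 versus SDS lysates quantified by mass spectrometry, three biological replicates.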
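For solubility in G1/S (NP-40 vs SDS abundance) in this document: HeLa Kyoto cells arrested at G1/S by double thymidine block, proteins quantified by TMT10plex mass spectrometry in mild NP-40 versus SDS extracts, three biological replicates.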
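For thermal stability score vs G1/S (z-score of summed log2 fold changes over temperatures) in this document: synchronized HeLa Kyoto cells, proteins quantified by TMT10plex mass spectrometry, three biological replicates, mitosis taken 0.5 h after nocodazole release, G1/S directly after double thymidine block.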

Sequence | solubility change mitosis (log2) (HeLa Kyoto [1]) | solubility in G1/S (log2) (HeLa Kyoto [2]) | melting temperature (HeLa Kyoto [3]; cell cycle stage: G1/S) [°C] | melting temperature (HeLa Kyoto [3]; cell cycle stage: mitosis) [°C] | thermal stability score (HeLa Kyoto [4]; [5]) | thermal stability score (HeLa Kyoto [4]; cell cycle stage: mitosis)
MDAKARNCLLQHREALEKDIKTSYIMDHMISDGFLTISEEEKVRNEPTQQQRAAMLIKMILKKDNDSYVSFYNALLHEGYKDLAALLHDGIPVVSSSSGKDSVSGITSYVRTVLCEGGVPQRPVVFVTRKKLVNAIQQKLSKLKGEPGWVTIHGMAGCGKSVLAAEAVRDHSLLEGCFPGGVHWVSVGKQDKSGLLMKLQNLCTRLDQDESFSQRLPLNIEEAKDRLRILMLRKHPRSLLILDDVWDSWVLKAFDSQCQILLTTRDKSVTDSVMGPKYVVPVESSLGKEKGLEILSLFVNMKKADLPEQAHSIIKECKGSPLVVSLIGALLRDFPNRWEYYLKQLQNKQFKRIRKSSSYDYEALDEAMSISVEMLREDIKDYYTDLSILQKDVKVPTKVLCILWDMETEEVEDILQEFVNKSLLFCDRNGKSFRYYLHDLQVDFLTEKNCSQLQDLHKKIITQFQRYHQPHTLSPDQEDCMYWYNFLAYHMASAKMHKELCALMFSLDWIKAKTELVGPAHLIHEFVEYRHILDEKDCAVSENFQEFLSLNGHLLGRQPFPNIVQLGLCEPETSEVYQQAKLQAKQEVDNGMLYLEWINKKNITNLSRLVVRPHTDAVYHACFSEDGQRIASCGADKTLQVFKAETGEKLLEIKAHEDEVLCCAFSTDDRFIATCSVDKKVKIWNSMTGELVHTYDEHSEQVNCCHFTNSSHHLLLATGSSDCFLKLWDLNQKECRNTMFGHTNSVNHCRFSPDDKLLASCSADGTLKLWDATSANERKSINVKQFFLNLEDPQEDMEVIVKCCSWSADGARIMVAAKNKIFLFDIHTSGLLGEIHTGHHSTIQYCDFSPQNHLAVVALSQYCVELWNTDSRSKVADCRGHLSWVHGVMFSPDGSSFLTSSDDQTIRLWETKKVCKNSAVMLKQEVDVVFQENEVMVLAVDHIRRLQLINGRTGQIDYLTEAQVSCCCLSPHLQYIAFGDENGAIEILELVNNRIFQSRFQHKKTVWHIQFTADEKTLISSSDDAEIQVWNWQLDKCIFLRGHQETVKDFRLLKNSRLLSWSFDGTVKVWNIITGNKEKDFVCHQGTVLSCDISHDATKFSSTSADKTAKIWSFDLLLPLHELRGHNGCVRCSAFSVDSTLLATGDDNGEIRIWNVSNGELLHLCAPLSEEGAATHGGWVTDLCFSPDGKMLISAGGYIKWWNVVTGESSQTFYTNGTNLKKIHVSPDFKTYVTVDNLGILYILQTLE [APAF1] | -0.0529 | -0.414 | 51.2 | 49.7 | -0.116 | 0.0498
MDAPRQVVNFGPGPAKLPHSVLLEIQKELLDYKGVGISVLEMSHRSSDFAKIINNTENLVRELLAVPDNYKVIFLQGGGCGQFSAVPLNLIGLKAGRCADYVVTGAWSAKAAEEAKKFGTINIVHPKLGSYTKIPDPSTWNLNPDASYVYYCANETVHGVEFDFIPDVKGAVLVCDMSSNFLSKPVDVSKFGVIFAGAQKNVGSAGVTVVIVRDDLLGFALRECPSVLEYKVQAGNSSLYNTPPCFSIYVMGLVLEWIKNNGGAAAMEKLSSIKSQTIYEIIDNSQGFYVCPVEPQNRSKMNIPFRIGNAKGDDALEKRFLDKALELNMLSLKGHRSVGGIRASLYNAVTIEDVQKLAAFMKKFLEMHQL [PSAT1] | -0.136 | 0.15 | 55.6 | 55.6 | -0.482 | -0.769
MDASLEKIADPTLAEMGKNLKEAVKMLEDSQRRTEEENGKKLISGDIPGPLQGSGQDMVSILQLVQNLMHGDEDEEPQSPRIQNIGEQGHMALLGHSLGAYISTLDKEKLRKLTTRILSDTTLWLCRIFRYENGCAYFHEEEREGLAKICRLAIHSRYEDFVVDGFNVLYNKKPVIYLSAAARPGLGQYLCNQLGLPFPCLCRVPCNTVFGSQHQMDVAFLEKLIKDDIERGRLPLLLVANAGTAAVGHTDKIGRLKELCEQYGIWLHVEGVNLATLALGYVSSSVLAAAKCDSMTMTPGPWLGLPAVPAVTLYKHDDPALTLVAGLTSNKPTDKLRALPLWLSLQYLGLDGFVERIKHACQLSQRLQESLKKVNYIKILVEDELSSPVVVFRFFQELPGSDPVFKAVPVPNMTPSGVGRERHSCDALNRWLGEQLKQLVPASGLTVMDLEAEGTCLRFSPLMTAAVLGTRGEDVDQLVACIESKLPVLCCTLQLREEFKQEVEATAGLLYVDDPNWSGIGVVRYEHANDDKSSLKSDPEGENIHAGLLKKLNELESDLTFKIGPEYKSMKSCLYVGMASDNVDAAELVETIAATAREIEENSRLLENMTEVVRKGIQEAQVELQKASEERLLEEGVLRQIPVVGSVLNWFSPVQALQKGRTFNLTAGSLESTEPIYVYKAQGAGVTLPPTPSGSRTKQRLPGQKPFKRSLRGSDALSETSSVSHIEDLEKVERLSSGPEQITLEASSTEGHPGAPSPQHTDQTEAFQKGVPHPEDDHSQVEGPESLR [PDXDC1] | -0.152 | 0.342 | 47.8 | 48.8 | 1.35 | 2.61
MDATALERDAVQFARLAVQRDHEGRYSEAVFYYKEAAQALIYAEMAGSSLENIQEKITEYLERVQALHSAVQSKSADPLKSKHQLDLERAHFLVTQAFDEDEKENVEDAIELYTEAVDLCLKTSYETADKVLQNKLKQLARQALDRAEALSEPLTKPVGKISSTSVKPKPPPVRAHFPLGANPFLERPQSFISPQSCDAQGQRYTAEEIEVLRTTSKINGIEYVPFMNVDLRERFAYPMPFCDRWGKLPLSPKQKTTFSKWVRPEDLTNNPTMIYTVSSFSIKQTIVSDCSFVASLAISAAYERRFNKKLITGIIYPQNKDGEPEYNPCGKYMVKLHLNGVPRKVIIDDQLPVDHKGELLCSYSNNKSELWVSLIEKAYMKVMGGYDFPGSNSNIDLHALTGWIPERIAMHSDSQTFSKDNSFRMLYQRFHKGDVLITASTGMMTEAEGEKWGLVPTHAYAVLDIREFKGLRFIQLKNPWSHLRWKGRYSENDVKNWTPELQKYLNFDPRTAQKIDNGIFWISWDDLCQYYDVIYLSWNPGLFKESTCIHSTWDAKQGPVKDAYSLANNPQYKLEVQCPQGGAAVWVLLSRHITDKDDFANNREFITMVVYKTDGKKVYYPADPPPYIDGIRINSPHYLTKIKLTTPGTHTFTLVVSQYEKQNTIHYTVRVYSACSFTFSKIPSPYTLSKRINGKWSGQSAGGCGNFQETHKNNPIYQFHIEKTGPLLIELRGPRQYSVGFEVVTVSTLGDPGPHGFLRKSSGDYRCGFCYLELENIPSGIFNIIPSTFLPKQEGPFFLDFNSIIPIKITQLQ [CAPN7] | -0.0174 | 0.0756 | 50.4 | 49.7 | -0.306 | -0.374
MDAVNAFNQELFSLMDMKPPISRAKMILITKAAIKAIKLYKHVVQIVEKFIKKCKPEYKVPGLYVIDSIVRQSRHQFGTDKDVFGPRFSKNITATFQYLYLCPSEDKSKIVRVLNLWQKNGVFKIEIIQPLLDMAAGTSNAAPVAENVTNNEGSPPPPVKVSSEPPTQATPNSVPAVPQLPSSDAFAAVAQLFQTTQGQQLQQILQTFQQPPKPQSPALDNAVMAQVQAITAQLKTTPTQPSEQKAAFPPPEQKTAFDKKLLDRFDYDDEPEAVEESKKEDTTAVTTTAPAAAVPPAPTATVPAAAAPAAASPPPPQAPFGFPGDGMQQPAYTQHQNMDQFQPRMMGIQQDPMHHQVPLPPNGQMPGFGLLPTPPFPPMAQPVIPPTPPVQQPFQASFQAQNEPLTQKPHQQEMEVEQPCIQEVKRHMSDNRKSRSRSASRSPKRRRSRSGSRSRRSRHRRSRSRSRDRRRHSPRSRSQERRDREKERERRQKGLPQVKPETASVCSTTLWVGQLDKRTTQQDVASLLEEFGPIESINMIPPRGCAYIVMVHRQDAYRALQKLSRGNYKVNQKSIKIAWALNKGIKADYKQYWDVELGVTYIPWDKVKPEELESFCEGGMLDSDTLNPDWKGIPKKPENEVAQNGGAETSHTEPVSPIPKPLPVPVPPIPVPAPITVPPPQVPPHQPGPPVVGALQPPAFTPPLGIPPPGFGPGVPPPPPPPPFLRPGFNPMHLPPGFLPPGPPPPITPPVSIPPPHTPPISIPNSTIAGINEDTTKDLSIGNPIPTVVSGARGNAESGDSVKMYGSAVPPAAPTNLPTPPVTQPVSLLGTQGVAPGPVIGLQAPSTGLLGARPGLIPLQRPPGMPPPHLQRFPLMPPRPMPPHMMHRGPPPGPGGFAMPPPHGMKGPFPPHGPFVRPGGMPGLGGPGPGPGGPEDRDGRQQPPQQPQQQPQPQAPQQPQQQQQQQPPPSQQPPPTQQQPQQFRNDNRQQFNSGRDQERFGRRSFGNRVENDRERYGNRNDDRDNSNRDRREWGRRSPDRDRHRDLEERNRRSSGHRDRERDSRDRESRREKEEARGKEKPEVTDRAGGNKTVEPPISQVGNVDTASELEKGVSEAAVLKPSEELPAEATSSVEPEKDSGSAAEAPR [SCAF4] | 0.211 | -0.347 | 48.5 | 51.4 | 0.0642 | -0.063
MDCYTANWNPLGDSAFYRKYELYSMDWDLKEELRDCLVAAAPYGGPIALLRNPWRKEKAASVRPVLDIYSASGMPLASLLWKSGPVVSLGWSAEEELLCVQEDGAVLVYGLHGDFRRHFSMGNEVLQNRVLDARIFHTEFGSGVAILTGAHRFTLSANVGDLKLRRMPEVPGLQSAPSCWTVLCQDRVAHILLAVGPDLYLLDHAACSAVTPPGLAPGVSSFLQMAVSFTYRHLALFTDTGYIWMGTASLKEKLCEFNCNIRAPPKQMVWCSRPRSKERAVVVAWERRLMVVGDAPESIQFVLDEDSYLVPELDGVRIFSRSTHEFLHEVPAASEEIFKIASMAPGALLLEAQKEYEKESQKADEYLREIQELGQLTQAVQQCIEAAGHEHQPDMQKSLLRAASFGKCFLDRFPPDSFVHMCQDLRVLNAVRDYHIGIPLTYSQYKQLTIQVLLDRLVLRRLYPLAIQICEYLRLPEVQGVSRILAHWACYKVQQKDVSDEDVARAINQKLGDTPGVSYSDIAARAYGCGRTELAIKLLEYEPRSGEQVPLLLKMKRSKLALSKAIESGDTDLVFTVLLHLKNELNRGDFFMTLRNQPMALSLYRQFCKHQELETLKDLYNQDDNHQELGSFHIRASYAAEERIEGRVAALQTAADAFYKAKNEFAAKATEDQMRLLRLQRRLEDELGGQFLDLSLHDTVTTLILGGHNKRAEQLARDFRIPDKRLWWLKLTALADLEDWEELEKFSKSKKSPIGYLPFVEICMKQHNKYEAKKYASRVGPEQKVKALLLVGDVAQAADVAIEHRNEAELSLVLSHCTGATDGATADKIQRARAQAQKK [VPS16] | -0.12 | -0.206 | 49.9 | 50.1 | 0.278 | 0.681
MDDTLFQLKFTAKQLEKLAKKAEKDSKAEQAKVKKALLQKNVECARVYAENAIRKKNEGVNWLRMASRVDAVASKVQTAVTMKGVTKNMAQVTKALDKALSTMDLQKVSSVMDRFEQQVQNLDVHTSVMEDSMSSATTLTTPQEQVDSLIMQIAEENGLEVLDQLSQLPEGASAVGESSVRSQEDQLSRRLAALRN [CHMP1A] | 0.313 | 0.509 | 54.4 | 53.9 | -0.982 | -1.61
MDEDGLPLMGSGIDLTKVPAIQQKRTVAFLNQFVVHTVQFLNRFSTVCEEKLADLSLRIQQIETTLNILDAKLSSIPGLDDVTVEVSPLNVTSVTNGAHPEATSEQPQQNSTQDSGLQESEVSAENILTVAKDPRYARYLKMVQVGVPVMAIRNKMISEGLDPDLLERPDAPVPDGESEKTVEESSDSESSFSD [CCDC53] | -0.0689 | -0.349 | 52.7 | – | 0.159 | -0.73
